# Measurements from patent CN111662383A (ZHUHAI LIVZON MCAB BIOTECHNOLOGY CO LTD; DINGFU BIOTARGET …, dated 2020).
# Residue numbers refer to the chain shown, from its start. Names may count otherwise. Where two headings read alike, the source gives them in different places.
# B1: 抗体5A5 (antibody, V domains shown)
# VH: EVQLQESGPSLVKPSQTLSLTCSVTGDSITSGYWNWIRKFPGNKLEYMGYISYTGSTYYNPSLKSRISITRDTSKNQYYLQLNSVTTEDTATYYCAKYGLWHLPAAMDYWGQGTSVTVSS
# VL: DIVLTQSPAIMSASPGEKVTMTCSASSSISYMHWYQQKPGTSPKRWIYDTSKLASGVPARFSGSGSGTSYSLTISSMEAEDAATYYCHQRSSYPFTFGSGTKLEIK
# notes: Mouse antibody purified from hybridoma supernatant on protein A
# B2: 抗体7A3 (antibody, V domains shown)
# VH: B1 VH with K44D, K97R, Y98F, M107L
# VL: B1 VL with S26K
# notes: as for B1
# B3: 抗体8G1 (antibody, V domains shown)
# VH: KVQLRQSGAELVKPGTSVKLSCKASGYTFTEYIIHWVKQRSGQGLEWIGWFYPGSGNIRYNEKFKDKATLTADKSSSTVYMELSRLTSEDSAVYFCARHEDKGAWFAYWGQGTLVTVSA
# VL: DIVLTQSPALLSASPGEKVTMTCSASSNVSYMYWYQQKPRSSPKPWIYLTSNLASGVPARFTGSGSGTSYSLTISSMEAEDGATYYCQQWSSNPLTFGAGTKLEVK
# notes: as for B1
# B4: 人源化抗体7A3 3-3 (antibody, V domains shown)
# VH: QVQLQESGPGLVKPSETLSLTCTVSGDSITSGYWNWIRKPPGNGLEYMGYISYTGSTYYNPSLKSRITITRDTSKNQYSLKLSSVTAADTAVYYCARFGLWHLPAALDYWGQGTLVTVSS
# VL: DIVLTQSPATLSLSPGERATLSCSAKSSISYMHWYQQKPGTSPKRWIYDTSKLASGVPARFSGSGSGTSYTLTISSLEPEDFAVYYCHQRSSYPFTFGQGTKVEIK
# notes: Humanized; also called 7A3VLV3 + 7A3VHV3
# B5: 7A3 3-3ND (antibody, V domains shown)
# VH: B4 VH with G44D
# VL: B4 VL
# notes: human IgG1 format as for 7A3 3-3; also called 7A3 3-3 with G44D in VH
# B6: 7A3 3-3QG (antibody, V domains shown)
# VH: B4 VH with N43Q
# VL: B4 VL
# notes: human IgG1 format as for 7A3 3-3; also called 7A3 3-3 with N43Q in VH
# B7: 人源化抗体7A3 1-3 (antibody, V domains shown)
# VH: B4 VH
# VL: B4 VL with T41Q, S42A, K44R, R45L, W46L, S69D, Y70F
# notes: Humanized; also called 7A3VLV1 + 7A3VHV3
# B8: 人源化抗体8G1 3-3 (antibody, V domains shown)
# VH: QVQLVQSGAEVKKPGASVKVSCKASGYTFTEYIIHWVKQAPGQGLEWIGWFYPGSGNIRYNEKFKDKATLTADKSSSTVYMELSSLRSEDTAVYFCARHEDKGAWFAYWGQGTLVTVSS
# VL: DIVLTQSPATLSLSPGERATLSCSASSNVSYMYWYQQKPGQSPKPWIYLTSNLASGVPARFTGSGSGTSYTLTISSLEPEDFAVYYCQQWSSNPLTFGQGTKVEIK
# notes: Humanized; also called 8G1VLV3 + 8G1VHV3
# B9: 8G1 3-3NG (antibody, V domains shown)
# VH: B8 VH
# VL: B8 VL with N28Q
# notes: Glycosylation-site variant of humanized 8G1 3-3; human IgG1 format as for 8G1 3-3; also called 8G1 3-3 with N28 mutated in VL
# What was measured:
# [1] = molecular target: T1, PD-L1 (in the mixed lymphocyte reaction of human dendritic cells and CD4+ T cells) (human, UniProt Q9NZQ7 19-290); test: cell-based or functional assay
# [2] = molecular target: T2, hPD-L1-EGFP细胞 (HEK293 cells expressing human PD-L1-EGFP) (human, UniProt Q9NZQ7 19-290); test: FACS on PD-L1-EGFP cells
# T2 construct: Fusion expressed on transfected HEK293 cells; junction between PD-L1 and EGFP not described; also called 细胞表面PD-L1; not shown: enhanced green fluorescent protein EGFP, UniProt C5MKY7
# 重组的人PD-L1-His [3] = molecular target: T3, 重组的人PD-L1-His (human, UniProt Q9NZQ7 19-238, limits assumed); test: BLI (Octet K2), antibody on AMC sensor, hPD-L1-His analyte
# T3 construct: Analyte in the BLI assays; also called hPD-L1-His; hPD-L1; not shown: His tag
# [4] = molecular target: T4, hB7H3-EGFP细胞 (HEK293 cells expressing human B7H3-EGFP) (human, UniProt Q5ZPR3 29-534); test: FACS on transfected HEK293 cells
# T4 construct: not shown: enhanced green fluorescent protein EGFP, UniProt C5MKY7
# T4 sequence (looked up): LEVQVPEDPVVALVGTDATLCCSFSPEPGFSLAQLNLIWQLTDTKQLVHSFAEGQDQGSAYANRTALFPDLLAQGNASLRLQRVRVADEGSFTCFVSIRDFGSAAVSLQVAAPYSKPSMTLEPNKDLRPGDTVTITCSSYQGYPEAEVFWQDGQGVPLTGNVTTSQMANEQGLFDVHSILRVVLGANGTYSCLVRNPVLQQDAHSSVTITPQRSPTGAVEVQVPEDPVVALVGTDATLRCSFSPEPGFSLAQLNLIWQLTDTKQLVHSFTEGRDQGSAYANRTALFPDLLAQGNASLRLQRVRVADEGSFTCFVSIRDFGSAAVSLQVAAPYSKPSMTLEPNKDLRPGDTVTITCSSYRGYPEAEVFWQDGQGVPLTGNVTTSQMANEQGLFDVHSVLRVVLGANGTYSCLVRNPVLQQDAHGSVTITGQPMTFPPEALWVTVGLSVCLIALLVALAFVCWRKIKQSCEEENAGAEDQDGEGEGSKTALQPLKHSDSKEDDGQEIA
# [5] = molecular target: T5, mPD-L1细胞 (HEK293 cells expressing mouse PD-L1-EGFP) (mouse, UniProt Q9EP73 19-290); test: FACS on transfected HEK293 cells
# T5 construct: also called mPD-L1-EGFP; 小鼠PD-L1; not shown: enhanced green fluorescent protein EGFP, UniProt C5MKY7
# [6] = molecular target: T6, hB7H4细胞 (HEK293 cells expressing human B7H4-EGFP) (human, UniProt Q7Z7D3 25-282); test: FACS on transfected HEK293 cells
# T6 construct: also called hB7H4-EGFP; not shown: enhanced green fluorescent protein EGFP, UniProt C5MKY7
# T6 sequence (looked up): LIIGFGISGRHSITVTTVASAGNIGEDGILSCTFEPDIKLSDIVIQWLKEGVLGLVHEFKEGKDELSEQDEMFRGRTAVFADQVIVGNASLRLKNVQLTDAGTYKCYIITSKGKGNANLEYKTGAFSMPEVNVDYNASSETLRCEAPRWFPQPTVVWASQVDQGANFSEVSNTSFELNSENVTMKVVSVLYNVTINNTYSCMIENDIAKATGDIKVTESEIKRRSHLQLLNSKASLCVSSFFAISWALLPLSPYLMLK
# [7] = molecular target: T7, hPD-1-EGFP细胞 (HEK293 cells expressing human PD-1-EGFP) (human, UniProt Q15116 25-288); test: FACS on transfected HEK293 cells
# T7 construct: Fusion expressed on transfected HEK293 cells; not shown: enhanced green fluorescent protein EGFP, UniProt C5MKY7
# hPD-L1-Fc = molecular target: T8, hPD-L1-Fc (human, UniProt Q9NZQ7 19-238); test: ELISA blocking assay, hPD-L1-Fc coated, competitor PD-1-Biotin 10μg/ml
# T8 construct: range 1-238; The stated range 1-238 begins at residue 1 and so includes the native signal peptide; No linker is stated; also called hPD-L1-Fc融合蛋白
# [8] = molecular target: T1, PD-L1 (in the mixed lymphocyte reaction …); test: cell-based or functional assay; remark: listed apart in the source
# [9] = molecular target: T1, PD-L1 (in the mixed lymphocyte reaction …); test: cell-based or functional assay; remark: listed apart in the source
# 重组的人PD-L1-His [10] = molecular target: T3, 重组的人PD-L1-His; test: BLI (Octet K2), antibody on AHC sensor, hPD-L1-His analyte
# 重组的人PD-L1-His [11] = molecular target: T3, 重组的人PD-L1-His; test: BLI as in Example 4, hPD-L1-His analyte
# 重组的人PD-L1-His [12] = molecular target: T3, 重组的人PD-L1-His; test: BLI as in Example 4, hPD-L1-His analyte; remark: listed apart in the source
# T7 sequence (Q15116 25-288): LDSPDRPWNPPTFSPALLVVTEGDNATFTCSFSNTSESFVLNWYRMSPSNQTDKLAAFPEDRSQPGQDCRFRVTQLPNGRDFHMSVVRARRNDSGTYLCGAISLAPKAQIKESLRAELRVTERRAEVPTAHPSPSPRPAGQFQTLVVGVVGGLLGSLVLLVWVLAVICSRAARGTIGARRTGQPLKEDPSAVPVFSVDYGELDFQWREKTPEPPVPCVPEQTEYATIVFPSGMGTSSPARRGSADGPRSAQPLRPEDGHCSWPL
# T5 sequence (Q9EP73 19-290): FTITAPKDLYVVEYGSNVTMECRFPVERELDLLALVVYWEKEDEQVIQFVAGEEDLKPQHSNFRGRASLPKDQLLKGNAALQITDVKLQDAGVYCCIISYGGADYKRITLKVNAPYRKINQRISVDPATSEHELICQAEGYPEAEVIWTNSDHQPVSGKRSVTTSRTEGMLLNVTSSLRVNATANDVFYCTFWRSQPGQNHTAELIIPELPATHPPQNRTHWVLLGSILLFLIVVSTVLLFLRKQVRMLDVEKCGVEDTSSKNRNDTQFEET
# T3 sequence (Q9NZQ7 19-238 limits assumed): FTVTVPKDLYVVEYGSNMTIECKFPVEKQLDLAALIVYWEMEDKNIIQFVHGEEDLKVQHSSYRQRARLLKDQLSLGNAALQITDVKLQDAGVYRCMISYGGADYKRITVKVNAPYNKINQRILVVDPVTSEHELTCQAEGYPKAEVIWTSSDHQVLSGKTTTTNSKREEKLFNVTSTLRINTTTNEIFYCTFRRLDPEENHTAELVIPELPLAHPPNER
# T8 sequence (Q9NZQ7 19-238 limits assumed, form in doubt): as the sequence (Q9NZQ7 19-238 limits assumed) above
# T2 sequence (Q9NZQ7 19-290): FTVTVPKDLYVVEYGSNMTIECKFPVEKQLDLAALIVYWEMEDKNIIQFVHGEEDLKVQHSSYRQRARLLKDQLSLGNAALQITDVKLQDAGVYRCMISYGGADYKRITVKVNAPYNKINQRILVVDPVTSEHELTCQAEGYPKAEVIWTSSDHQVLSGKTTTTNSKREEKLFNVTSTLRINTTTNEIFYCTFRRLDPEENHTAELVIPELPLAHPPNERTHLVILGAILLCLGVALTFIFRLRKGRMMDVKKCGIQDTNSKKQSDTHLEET
# T1 sequence (Q9NZQ7 19-290 limits assumed): as the sequence (Q9NZQ7 19-290) above
EC50 of IFN-γ secretion in mixed lymphocyte reaction (MLR) [1] [mg/L],EC50 [2] [mg/L],Kd (重组的人PD-L1-His [3]) [nM],koff (重组的人PD-L1-His [3]) [s⁻¹],kon (重组的人PD-L1-His [3]) [M⁻¹ s⁻¹],binding result [4],binding result [5],binding result [6],binding result [7],IC50 (hPD-L1-Fc) [mg/L],EC50 of IFN-γ secretion in mixed lymphocyte reaction (MLR) [8] [mg/L],Kd (重组的人PD-L1-His [10]) [nM],koff (重组的人PD-L1-His [10]) [s⁻¹],kon (重组的人PD-L1-His [10]) [M⁻¹ s⁻¹],further results,Binder
0.104,1.33,5.75,0.00453,788000,no binding (tested: 10μg/ml),no binding (tested: 10μg/ml),no binding (tested: 10μg/ml),no binding (tested: 10μg/ml),–,–,–,–,–,–,B1
0.0588,2.76,4.29,0.0036,840000,no binding (tested: 10μg/ml),no binding (tested: 10μg/ml),no binding (tested: 10μg/ml),no binding (tested: 10μg/ml),–,–,–,–,–,–,B2
~0.03,2.25,2.32,0.00117,504000,no binding (tested: 10μg/ml),no binding (tested: 10μg/ml),no binding (tested: 10μg/ml),no binding (tested: 10μg/ml),–,–,–,–,–,–,B3
–,–,–,–,–,–,–,–,–,1.44,0.0285,2.85,0.00128,449000,EC50 of IFN-γ secretion in mixed lymphocyte reaction (MLR) [9]: 0.449 mg/L; Kd (重组的人PD-L1-His [11]): 13.2 nM; koff (重组的人PD-L1-His [11]): 0.00547 s⁻¹; kon (重组的人PD-L1-His [11]): 415000 M⁻¹ s⁻¹,B4
–,–,–,–,–,–,–,–,–,–,0.576,–,–,–,Kd (重组的人PD-L1-His [11]): 14.4 nM; koff (重组的人PD-L1-His [11]): 0.00631 s⁻¹; kon (重组的人PD-L1-His [11]): 438000 M⁻¹ s⁻¹,B5
–,–,–,–,–,–,–,–,–,–,1.05,–,–,–,–,B6
–,–,–,–,–,–,–,–,–,1.82,–,23.6,0.0119,504000,EC50 of IFN-γ secretion in mixed lymphocyte reaction (MLR) [9]: ~0.176 mg/L,B7
–,–,–,–,–,–,–,–,–,1.24,–,0.0163,5.79e-06,355000,–,B8
–,–,–,–,–,–,–,–,–,–,–,–,–,–,Kd (重组的人PD-L1-His [12]): 6.89 nM; koff (重组的人PD-L1-His [12]): 0.00174 s⁻¹; kon (重组的人PD-L1-His [12]): 252000 M⁻¹ s⁻¹,B9
